Test results from patent US20220267463A1 (Hoffmann-La Roche, published 2022).

T1: carcinoembryonic antigen (CEA) on MKN-45 cells (human, UniProt P06731 35-685)
T1 construct: whole, on cells; also called CEACAM5; Carcinoembryonic antigen-related cell adhesion molecule 5
T1 sequence (looked up): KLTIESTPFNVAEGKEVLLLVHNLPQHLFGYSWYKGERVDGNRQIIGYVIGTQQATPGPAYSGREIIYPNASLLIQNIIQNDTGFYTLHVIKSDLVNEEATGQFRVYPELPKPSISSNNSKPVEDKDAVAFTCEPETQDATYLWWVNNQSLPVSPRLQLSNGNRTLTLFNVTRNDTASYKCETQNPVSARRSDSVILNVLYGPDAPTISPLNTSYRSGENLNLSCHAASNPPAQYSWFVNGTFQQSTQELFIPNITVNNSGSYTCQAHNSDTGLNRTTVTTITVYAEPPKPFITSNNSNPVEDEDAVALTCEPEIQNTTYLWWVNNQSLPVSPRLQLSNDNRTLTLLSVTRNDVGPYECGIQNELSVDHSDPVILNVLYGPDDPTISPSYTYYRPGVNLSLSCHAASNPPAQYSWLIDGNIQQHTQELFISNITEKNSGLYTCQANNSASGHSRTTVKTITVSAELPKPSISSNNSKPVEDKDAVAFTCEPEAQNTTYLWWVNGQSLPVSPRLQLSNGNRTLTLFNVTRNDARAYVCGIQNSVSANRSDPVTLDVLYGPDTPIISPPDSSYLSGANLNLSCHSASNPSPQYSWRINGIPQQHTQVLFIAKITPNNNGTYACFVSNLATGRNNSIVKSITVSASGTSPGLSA


Assays:
[1] = target: T1, carcinoembryonic antigen (CEA) on …; test: flow cytometry on MKN45 cells, hemibody mixed 1:1 with human ISO control, detection with anti-human IgG(H+L) (title: A488; legend box: FITC)
Procedure: To assess the functionality of the split antibodies or hemibodies, MKN-45 cells were detached from the culture vessel using accutase at 37° C. for 10 minutes. Subsequently, the cells were washed twice in PBS, and seeded into 96 well v-bottom plates to a final density of 4×10⁶ cells/well.
Subsequently, the cells were incubated for 1 h on ice and washed twice in PBS. The cell pellet was resuspended and 40 μl/well of detection reagent was added, either <human IgG(H+L)>FITC, (10 μg/ml) or Pb_Dotam_FITC 1:100=>(10 μg/ml) in PBS/5% FCS. After 60 min incubation on ice, the cells were washed twice in PBS and resuspended in 200 μl PBS/5% FCS for measurement of FITC fluorescence using a FACS canto.

[2] = target: T1, carcinoembryonic antigen (CEA) on …; test: flow cytometry on MKN-45 cells, detection with anti-huIgG(H+L)-Alexa488
Procedure: MKN-45 cells were detached from the culture bottle using Trypsin and were counted using a Casy cell counter. After pelleting at 4° C., 300 g the cells were resuspended in FACS Buffer (2.5% FCS in PBS), adjusted to 2.0E+06 cells/mL dispensed to 96-well PP V-bottom-Platte (25 μL/well=5.0E+04 Zellen/well).
The CEA specific SPLIT antibodies (P1AF0712 or P1AF0713 respectively) were adjusted to 40 μg/mL in FACS buffer, resulting in a final concentration of 10 μg/mL. […] The cells were then washed twice in FACS buffer and resuspended in 70 μl/well FACS buffer for measurement using a FACS Canto (BD, Pharmingen). […] Both antibodies were added to the cells either separated followed by buffer or combined and incubated at 4° C. for 1 h. The cells were then washed twice in FACS buffer. After washing, the cells were resuspended in 50 μL FACS-buffer containing secondary antibody (<huIgG(H+L)>-Alexa488, c=10 μg/mL) and incubated 1 h at 4° C.

| EC50 (read off the curve) [1] [µg/mL] | EC50 [2] [µg/mL] | Binder |
| --- | --- | --- |
| ~1 | – | PRIT Split Antibody with DOTAM-VH-P1AD8749 (antibody, human IgG1, kappa, L234A L235A, Full length anti-CEA (CH1A1A) human IgG1 with knob-into-hole and P329G LALA; one heavy chain carries the DOTAM VH at its C-terminus; No DOTAM VL; Bivalent for CEA; also called CEA-split-DOTAM-VH; P1_B) heavy 1: QVQLVQSGAEVKKPGASVKVSCKASGYTFTEFGMNWVRQAPGQGLEWMGWINTKTGEATYVEEFKGRVTFTTDTSTSTAYMELRSLRSDDTAVYYCARWDFAYYVEAMDYWGQGTTVTVSSASTKGPSVFPLAPSSKSTSGGTAALGCLVKDYFPEPVTVSWNSGALTSGVHTFPAVLQSSGLYSLSSVVTVPSSSLGTQTYICNVNHKPSNTKVDKKVEPKSCDKTHTCPPCPAPEAAGGPSVFLFPPKPKDTLMISRTPEVTCVVVDVSHEDPEVKFNWYVDGVEVHNAKTKPREEQYNSTYRVVSVLTVLHQDWLNGKEYKCKVSNKALGAPIEKTISKAKGQPREPQVCTLPPSRDELTKNQVSLSCAVKGFYPSDIAVEWESNGQPENNYKTTPPVLDSDGSFFLVSKLTVDKSRWQQGNVFSCSVMHEALHNHYTQKSLSLSPG heavy 2: not shown light: DIQMTQSPSSLSASVGDRVTITCKASAAVGTYVAWYQQKPGKAPKLLIYSASYRKRGVPSRFSGSGSGTDFTLTISSLQPEDFATYYCHQYYTYPLFTFGQGTKLEIKRTVAAPSVFIFPPSDEQLKSGTASVVCLLNNFYPREAKVQWKVDNALQSGNSQESVTEQDSKDSTYSLSSTLTLSKADYEKHKVYACEVTHQGLSSPVTKSFNRGEC |
| – | 2.7 | P1AF0712 (antibody, human IgG1, kappa, L234A L235A, also called CEA specific SPLIT antibody (DOTA-VL); P6_A) heavy 1: not shown heavy 2: QVQLVQSGAEVKKPGASVKVSCKASGYTFTEFGMNWVRQAPGQGLEWMGWINTKTGEATYVEEFKGRVTFTTDTSTSTAYMELRSLRSDDTAVYYCARWDFAYYVEAMDYWGQGTTVTVSSASTKGPSVFPLAPSSKSTSGGTAALGCLVKDYFPEPVTVSWNSGALTSGVHTFPAVLQSSGLYSLSSVVTVPSSSLGTQTYICNVNHKPSNTKVDKKVEPKSCDKTHTCPPCPAPEAAGGPSVFLFPPKPKDTLMISRTPEVTCVVVDVSHEDPEVKFNWYVDGVEVHNAKTKPREEQYNSTYRVVSVLTVLHQDWLNGKEYKCKVSNKALGAPIEKTISKAKGQPREPQVCTLPPSRDELTKNQVSLSCAVKGFYPSDIAVEWESNGQPENNYKTTPPVLDSDGSFFLVSKLTVDKSRWQQGNVFSCSVMHEALHNHYTQKSLSLSPGGGGGSGGGGSGGGGSGGGGSQAVVIQESALTTPPGETVTLTCGSSTGAVTASNYANWVQEKPDHLFTGLIGGHNNRPPGVPARFSGSLIGDKAALTIAGTQTEDEAIYFCALWYSDHWVIGGGTKLTVL light: DIQMTQSPSSLSASVGDRVTITCKASAAVGTYVAWYQQKPGKAPKLLIYSASYRKRGVPSRFSGSGSGTDFTLTISSLQPEDFATYYCHQYYTYPLFTFGQGTKLEIKRTVAAPSVFIFPPSDEQLKSGTASVVCLLNNFYPREAKVQWKVDNALQSGNSQESVTEQDSKDSTYSLSSTLTLSKADYEKHKVYACEVTHQGLSSPVTKSFNRGEC |
| – | 2.3 | P1AF0713 (antibody, human IgG1, kappa, L234A L235A, also called CEA specific SPLIT antibody (DOTA-VH-AST); P6_B) heavy 1: QVQLVQSGAEVKKPGASVKVSCKASGYTFTEFGMNWVRQAPGQGLEWMGWINTKTGEATYVEEFKGRVTFTTDTSTSTAYMELRSLRSDDTAVYYCARWDFAYYVEAMDYWGQGTTVTVSSASTKGPSVFPLAPSSKSTSGGTAALGCLVKDYFPEPVTVSWNSGALTSGVHTFPAVLQSSGLYSLSSVVTVPSSSLGTQTYICNVNHKPSNTKVDKKVEPKSCDKTHTCPPCPAPEAAGGPSVFLFPPKPKDTLMISRTPEVTCVVVDVSHEDPEVKFNWYVDGVEVHNAKTKPREEQYNSTYRVVSVLTVLHQDWLNGKEYKCKVSNKALGAPIEKTISKAKGQPREPQVCTLPPSRDELTKNQVSLSCAVKGFYPSDIAVEWESNGQPENNYKTTPPVLDSDGSFFLVSKLTVDKSRWQQGNVFSCSVMHEALHNHYTQKSLSLSPG heavy 2: not shown light: DIQMTQSPSSLSASVGDRVTITCKASAAVGTYVAWYQQKPGKAPKLLIYSASYRKRGVPSRFSGSGSGTDFTLTISSLQPEDFATYYCHQYYTYPLFTFGQGTKLEIKRTVAAPSVFIFPPSDEQLKSGTASVVCLLNNFYPREAKVQWKVDNALQSGNSQESVTEQDSKDSTYSLSSTLTLSKADYEKHKVYACEVTHQGLSSPVTKSFNRGEC |
